For this assay, the target named is HasSCTD, the last 78 residues of the antisigma factor HasS of Serratia marcescens (Serratia marcescens) (UniProt Q79AD3). Description: NMR titration; 1H-15N HSQC, one partner 15N-labelled in turn, peak intensities before and after adding the unlabelled partner; 250 µM HasSCTD with 200, 400 or 800 µM signaling domain, or 100 µM 15N signaling domain with 250 µM HasSCTD; control with 400 µM periplasmic domain; sodium phosphate pH 7, 50 mM NaCl, 0.05% Zw, 15% D2O; 20°C.

As to “signaling domain of the TonB-dependent outer membrane transporter HasR (from UniProt Q79AD2) (domain or fragment)”, the reduction of the overall HSQC peak intensity of 15N HasSCTD stood at 35%.

The values above are taken from article PMC3984077.
